Assay results published in paper PMC5686140, “Structural disorder and induced folding within two cereal, ABA stress and ripening (ASR) proteins” (Scientific Reports, 2017).

Target: the molecule itself
Assay: native MS; native ESI-MS, Synapt G2-Si; proteins buffer-exchanged into 250 mM ammonium acetate, pH 8.0, infused at 15 μM; source temperature 30 °C

B1: alcohol dehydrogenase (enzyme, UniProt P00330 1-348, looked up)
chain: MSIPETQKGVIFYESHGKLEYKDIPVPKPKANELLINVKYSGVCHTDLHAWHGDWPLPVKLPLVGGHEGAGVVVGMGENVKGWKIGDYAGIKWLNGSCMACEYCELGNESNCPHADLSGYTHDGSFQQYATADAVQAAHIPQGTDLAQVAPILCAGITVYKALKSANLMAGHWVAISGAAGGLGSLAVQYAKAMGYRVLGIDGGEGKEELFRSIGGEVFIDFTKEKDIVGAVLKATDGGAHGVINVSVSEAAIEASTRYVRANGTTVLVGMPAGAKCCSDVFNQVVKSISIVGSYVGNRADTREALDFFARGLVKSPIKVVGLSTLPEIYEKMEKGQIVGRYVVDTSK
notes: alcohol dehydrogenase (ADH, a tetrameric protein), control of the native ESI-MS; Species surmised: the tetrameric ADH commonly used as a native MS standard is that of S. cerevisiae; also called ADH
- stoichiometry N: 4
